{
  "source": "paper PMC5423654",
  "proteins": {"B1": {"name": "S. aureus SQR (sulfide:quinone oxidoreductase) (Staphylococcus aureus subsp. aureus NCTC 8325) (protein)", "chain": "MNKHYQIVIIGGGTAGVTVASRLLRKNQNLKEKIAIIDPADHHYYQPLWTLVGAGVSSLKSSRKDMESVIPEGANWIKQAVSSFQPENNSVILGDNTVVYYDFLVVAPGLQINWSSIKGLKENIGKNGVCSNYSPDYVNETWNQISNFKQGNAIFTHPNTPIKCGGAPMKIMYLAEDYFRKHKIRSNANVIYATPKDALFDVGKYNKELERIVEERNITVNYNYNLVEIDGDKKVATFEHIKAYDRKTISYDMLHVTPPMGPLDVVKESTLSDSEGWVDVNPTTLQHKSYSNVFALGDASNVPTSKTGAAIRKQAPIVANNLLQVMNNQMLTHHYDGYTSCPIVTGYNRLILAEFDYNKNTKETMPFNQAKERRSMYIFKKDLLPKMYWYGMLKGLI"}},
  "substrate": "S",
  "assay": "UV-vis quinone reduction, steady-state kinetics",
  "assay_type": "biochemical, Staphylococcus aureus",
  "conditions": "pH 8.0; 25.0 °C",
  "data": [
    {"protein": "B1", "values": [
      {"measurement": "Km", "result": "22 ± 7", "unit": "µM"},
      {"measurement": "Vmax", "result": 0.41, "unit": "µmol/min/mg"},
      {"measurement": "kcat/Km", "result": "14100 ± 4600", "unit": "M⁻¹ s⁻¹"}
    ]}
  ]
}
